Consider 1 molecule from patent publication US20110152199A1 (ONCOTHERAPY SCIENCE, published 2011).

The assay deals with T1, HLA-A2 (HLA-A*0201) on cells (human, UniProt P04439 25-302 at identity 0.94)).
T1 MHC heavy: not shown
The assay can be described thus: cell-based or functional assay.

B1: CDCA1 351-359 (No. 4) peptide (peptide)
peptide: KLATAQFKI
Take B1: the “IFN-γ production by healthy donor 1-derived CTLs against T2 cells pulsed with the peptide at various concentrations (E/T ratio 5)” value was ≥ 0.2 µg/mL.
